Source: patent US20240059764A1 (STARMAB BIOLOGICS SUZHOU, published 2024)

B1: F6-Fc fusion proteins binding with antigen (Fc fusion)
chain: QVQLVESGGGLAQPGGSLRLSCEASGSTLDSYTVAWFRQAPGKEREGVSCASRSGASTNYANSVKGRFTISRDNAKNTVYLQMNSLKPEDTGVYYCAAYRNFGNFCVMGRYEYDEWGQGTQVTVSSEPKSSDKTHTCPPCPAPELLGGPSVFLFPPKPKDTLYITREPEVTCVVVDVSHEDPEVKFNWYVDGVEVHNAKTKPREEQYNSTYRVVSVLTVLHQDWLNGKEYKCKVSNKALPAPIEKTISKAKGQPREPQVYTLPPSREEMTKNQVSLTCLVKGFYPSDIAVEWESNGQPENNYKTTPPVLDSDGSFFLYSKLTVDKSRWQQGNVFSCSVMHEALHNHYTQKSLSLSPGK
B2: huF6-Fc fusion proteins binding with antigen (Fc fusion)
chain: EVQLVESGGGLVQPGGSLRLSCAASGSTLDSYTVAWVRQAPGKGLEWVSCASRSGASTNYANSVKGRFTISRDNSKNTVYLQMNSLRAEDTAVYYCAAYRNFGNFCVMGRYEYDEWGQGTLVTVSSEPKSSDKTHTCPPCPAPELLGGPSVFLFPPKPKDTLYITREPEVTCVVVDVSHEDPEVKFNWYVDGVEVHNAKTKPREEQYNSTYRVVSVLTVLHQDWLNGKEYKCKVSNKALPAPIEKTISKAKGQPREPQVYTLPPSREEMTKNQVSLTCLVKGFYPSDIAVEWESNGQPENNYKTTPPVLDSDGSFFLYSKLTVDKSRWQQGNVFSCSVMHEALHNHYTQKSLSLSPGK
B3: A3-Fc fusion proteins binding with antigen (Fc fusion)
chain: QVQLVESGGGLVQAGGSLTLSCVASGFTFSRHGMTWVRQAPGKELDYVGEINIPGDDVDYDISVKGRFTISRDNAKNTVYLHMTNLKVEDTATYWCAQAGENMRLVTRRQGTQVTVSTEPKSSDKTHTCPPCPAPELLGGPSVFLFPPKPKDTLYITREPEVTCVVVDVSHEDPEVKFNWYVDGVEVHNAKTKPREEQYNSTYRVVSVLTVLHQDWLNGKEYKCKVSNKALPAPIEKTISKAKGQPREPQVYTLPPSREEMTKNQVSLTCLVKGFYPSDIAVEWESNGQPENNYKTTPPVLDSDGSFFLYSKLTVDKSRWQQGNVFSCSVMHEALHNHYTQKSLSLSPGK
B4: G1-Fc fusion proteins binding with antigen (Fc fusion)
chain: QVQLVESGGDLVQPGGSLTLACEASGFTISSTGMTWVRQAPGKELDWVGDINIPGTDTDYDISVKGRFTISKDHAKNTVYLQMTSLRPEDTAIYYCAKQGANLRQGVQSPGTLVTVSSEPKSSDKTHTCPPCPAPELLGGPSVFLFPPKPKDTLYITREPEVTCVVVDVSHEDPEVKFNWYVDGVEVHNAKTKPREEQYNSTYRVVSVLTVLHQDWLNGKEYKCKVSNKALPAPIEKTISKAKGQPREPQVYTLPPSREEMTKNQVSLTCLVKGFYPSDIAVEWESNGQPENNYKTTPPVLDSDGSFFLYSKLTVDKSRWQQGNVFSCSVMHEALHNHYTQKSLSLSPGK
B5: huA3-Fc fusion proteins binding with antigen (Fc fusion)
chain: QVQLVESGGGLVQPGGSLRLSCAASGFTFSRHGMTWVRQAPGKGLEYVGEINIPGDDVDYDISVKGRFTISRDNAKNTLYLQMNSLRAEDTAVYYCARAGENMRLVTRGQGTLVTVSSEPKSSDKTHTCPPCPAPELLGGPSVFLFPPKPKDTLYITREPEVTCVVVDVSHEDPEVKFNWYVDGVEVHNAKTKPREEQYNSTYRVVSVLTVLHQDWLNGKEYKCKVSNKALPAPIEKTISKAKGQPREPQVYTLPPSREEMTKNQVSLTCLVKGFYPSDIAVEWESNGQPENNYKTTPPVLDSDGSFFLYSKLTVDKSRWQQGNVFSCSVMHEALHNHYTQKSLSLSPGK
B6: huG1-Fc fusion proteins binding with antigen (Fc fusion)
chain: QVQLVESGGGLVQPGGSLRLSCAASGFTISSTGMTWVRQAPGKGLEWVGDINIPGTDTDYDISVKGRFTISKDHAKNTVYLQMNSLRAEDTAVYYCAKQGANLRQGVQGQGTLVTVSSEPKSSDKTHTCPPCPAPELLGGPSVFLFPPKPKDTLYITREPEVTCVVVDVSHEDPEVKFNWYVDGVEVHNAKTKPREEQYNSTYRVVSVLTVLHQDWLNGKEYKCKVSNKALPAPIEKTISKAKGQPREPQVYTLPPSREEMTKNQVSLTCLVKGFYPSDIAVEWESNGQPENNYKTTPPVLDSDGSFFLYSKLTVDKSRWQQGNVFSCSVMHEALHNHYTQKSLSLSPGK

Target: Staphylococcus aureus alpha toxin (Staphylococcus aureus, UniProt P09616)
Sequence (P09616 27-319 limits assumed): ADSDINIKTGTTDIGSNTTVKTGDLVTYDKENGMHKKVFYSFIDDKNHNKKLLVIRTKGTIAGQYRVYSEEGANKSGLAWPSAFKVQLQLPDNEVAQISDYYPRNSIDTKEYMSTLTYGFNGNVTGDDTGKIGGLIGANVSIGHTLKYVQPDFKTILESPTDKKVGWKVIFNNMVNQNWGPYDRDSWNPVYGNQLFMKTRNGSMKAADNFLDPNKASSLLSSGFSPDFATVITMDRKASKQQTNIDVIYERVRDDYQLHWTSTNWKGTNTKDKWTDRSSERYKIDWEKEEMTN

Binder	EC50 [ng/mL]
B1	3
B2	2.72
B3	9
B4	7
B5	5.97
B6	6.35
